Results on one molecule are retold here after US7064106B2, “Gene and use thereof” (Takeda Chemical Industries, Ltd., priority 1999, dated 2006).

What all share (format): cell-based
Data set [1] has as its target T1, C-terminal cytoplasmic domain (amino acid numbers 451–492) of mouse GLUT1 (Mus musculus, UniProt P17809).
T1 construct: the C-terminal cytoplasmic domain (amino acid numbers 451–492) of mouse GLUT1; expressed in transfected cells; host or cells: Saccharomyces cerevisiae Y190
T1 sequence (P17809 451-492): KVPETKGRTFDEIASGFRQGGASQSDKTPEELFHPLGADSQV
Briefly: Yeast two-hybrid β-galactosidase assay, interaction with glucose transporter. The conditions noted are these: bait mouse GLUT1 (451–492); prey human MD36 cDNA 2995–3674 fused to GAL4-AD. The protocol:
(§1) As the bait sequence, the C-terminal cytoplasmic domain (amino acid numbers 468–510; SEQ ID NO:13 and SEQ ID NO:14) of mouse GLUT4 was used. For control, similar procedures were performed using the C-terminal cytoplasmic domain (amino acid numbers 451–492) of mouse GLUT1, which is the other protein of glucose transporters. These sequences were isolated from the respective cDNAs by PCR using pfu polymerase (manufactured by Stratagene, Inc.) and constructed to be expressed as the fusion proteins in the GAL4-BD sequence of pGBT9 (manufactured by Clontech, Inc.). On the other hand, human MD36 cDNA (base numbers 2995–3674 in SEQ ID NO:3) fused to GAL4-AD was used as the prey sequence. S. Cerevisiae Y190 was transformed by these plasmids, and the binding activity of MD36 to each of the glucose transporters was assayed in terms of the β-galactosidase activity.

Data set [2] deals with T2, C-terminal cytoplasmic domain (amino acid numbers 468–510) of mouse GLUT4 (Mus musculus, UniProt P14142).
T2 construct: amino acid numbers 468–510; expressed in transfected cells; host or cells: Saccharomyces cerevisiae Y190
T2 sequence (P14142 467-509): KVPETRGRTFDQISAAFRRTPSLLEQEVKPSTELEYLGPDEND
Described as above. The conditions noted are these: bait mouse GLUT4 (468–510); prey human MD36 cDNA 2995–3674 fused to GAL4-AD. As to the method:
as §1

A further data set has as its target T3, IRAP (55–82) (Rattus norvegicus, UniProt P97629).
T3 construct: expressed in transfected cells; host or cells: Saccharomyces cerevisiae Y190
T3 sequence (P97629 55-82 limits assumed): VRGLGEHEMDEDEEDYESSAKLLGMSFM
Put plainly: Yeast two-hybrid quantification assay of β-galactosidase activity (CPRG). Particulars: bait IRAP (55–82); prey MD36 cDNA base numbers 2995–3674; S. cerevisiae Y190; CPRG substrate. The protocol:
In order to verify the binding of human MD36 to IRAP quantitatively, the β-galactosidase activity was assayed using CPRG (chlorophenol red-β-D-galactopyranoside) as substrate.
Yeast bearing both bait and prey sought to detect the interactions therebetween was subjected to liquid culture. After the cells were recovered, the cell walls were disrupted by freezing/thawing with liquid nitrogen. After CRPG was added to a suspension of the disrupted cells, absorbance of these samples at 578 nm was measured in terms of the β-galactosidase activity. In the unit of β-galactosidase, the enzyme activity that one yeast cell is capable of hydrolyzing 1 μmol of CPRG into chlorophenol red and D-galactoside was made 1 unit. IRAP (55–82) was used as the bait sequence and as the prey sequence, the sequence (679 bp corresponding to the base numbers 2995–3674 in SEQ ID NO:3) directly isolated from human MD36 cDNA sequence by the yeast two-hybrid method was used. In addition, vector pGBT9 that expresses bait sequence-unfused GAL4-BD was used as a negative control. Using plasmids having these sequences, S. Cerevisiae Y190 was transformed and the β-galactosidase activity of the reconstructed yeast transformants was assayed. […] On the other hand, the binding activity was scarcely noted with the protein bearing GAL4-BD alone but no bait sequence (FIG. 19). […]

A further data set deals with profilin I. Put plainly: Yeast two-hybrid HIS3 growth test, MD36 and profilin family. The conditions noted are these: S. cerevisiae Y190; 40 mM 3-amino-1,2,4-triazole. The source says: The protein-protein interaction between MD36 and the profilin family was detected by the yeast two-hybrid system. Based on pGBT9 (CLONTECH), expression plasmids were constructed to express the coding regions of profiling I (Evangelista et al., Science, 276, 118–122, 1997; Imamura et al., EMBO J., 16, 2745–2755, 1997; Tanaka, Biochem. Biophys. Res. Commun., 267, 479–481, 2000), profilin II (Schluter et al., Biohim. Biophys. Acta, 1359, 97–109, 1997), and profiling IIL in the form fused to yeast GAL4-DNA-binding domain protein under control of yeast ADH1 promoter. These plasmids were named pG-PFNI, pG-PFNII and pG-PFNIII, respectively (yeast selection marker was TRP1). On the other hand, expression plasmids that express the full-length sequence (SEQ ID NO:1) of MD36, which is IRAP-BP protein, or the coding region from this N-terminus to the sequence (SEQ ID NO:33) including the proline-rich domain in the form fused to yeast […] activated domain protein under control of yeast ADH1 promoter was constructed based on pACT2 (CLONTECH), and named pACT-MD36 and pACT-MD36NT, respectively (yeast selection marker was LEU2). pG-PFNI, pG-PFNII, pG-PFNIII or, pGBT9 for control was co-transfected to yeast Saccharomyces cerevisiae Y190 together with pACT-MD36 or pACT-MD36NT, and yeast strains bearing plasmids from the two were selected on SD medium free of tryptophan and leucine. S. cerevisiae Y190 is originally a histidine auxotrophic strain but when the introduced proteins on the plasmids show the interactions, reporter gene HIS3 is expressed and the strain becomes capable of growing on a histidine-free plate. The yeast strain acquired was spread on tryptophan, leucine and histidine-free SD medium supplemented with 40 mM 3-amino-1,2,4-triazole.

B1: MD36: human skeletal muscle-derived IRAP binding protein, SEQ ID NO:1; C-terminal part (bases 2995–3674) used in binding tests (protein, listed as Homo sapiens)
chain: MAGGEDRGDGEPVSVVTVRVQYLEDTDPFACANFPEPRRAPTCSLDGALPLGAQIPAVHRLLGAPLKLEDCALQVSPSGYYLDTELSLEEQREMLEGFYEEISKGRKPTLILRTQLSVRVNAILEKLYSSSGPELRRSLFSLKQIFQEDKDLVPEFVHSEGLSCLIRVGAAADHNYQSYILRALGQLMLFVDGMLGVVAHSDTIQWLYTLCASLSRLVVKTALKLLLVFVEYSENNAPLFIRAVNSVASTTGAPPWANLVSILEEKNGADPELLVYTVTLINKTLAALPDQDSFYDVTDALEQQGMEALVQRHLGTAGTDVDLRTQLVLYENALKLEDGDIEEAPGAGGRRERRKPSSEEGKRSRRSLEGGGCPARAPEPGPTGPASPVGPTSSTGPALLTGPASSPVGPPSGLQASVNLFPTISVAPSADTSSERSIYKLHQTASVWAPESPPVPQSPPGQARLEARFLENVAAAETEKQVALAQGRAETLAGAMPNEAGGHPDARQLWDSPETAPAARTPQSPAPCVLLRAQRSLAPEPKEPLIPASPKAEPIWELPTRAPRLSIGDLDFSDLGEDEDQDMLNVESVEAGKDIPAPSPPLPLLSGVPPPPPLPPPPPIKGPFPPPPPLPLAAPLPHSVPDSSALPTKRKTVKLFWRELKLAGGHGVSASRFGPCATLWASLDPVSVDTARLEHLFESRAKEVLPSKKAGEGRRTMTTVLDPKRSNAINIGLTTLPPVHVIKAALLNFDEFAVSKDGIEKLLTMMPTEEERQKIEEAQLANPDIPLGPAENFLMTLASIGGLAARLQLWAFKLDYDSMEREIAEPLFDLKVGMEQLVQNATFRCILATLLAVGNFLNGSQSSGFELSYLEKVSEVKDTVRRQSLLHHLCSLVLQTRPESSDLYSEIPALTRCAKVDFEQLTENLGQLERRSRAAEESLRSLAKHELAPALRARLTHFLDQCARRVAMLRIVHRRVCNRFHAFLLYLGYTPQAAREVRIMQFCHTLREFALEYRTCRERVLQQQQKQATYRERNKTRGRMITETEKFSGVAGEAPSNPSVPVAVSSGPGRGDADSHASMKSLLTSRPEDTTHNRRSRGMVQSSSPIMPTVGPSTASPEEPPGSSLPSDTSDEIMDLLVQSVTKSSPRALAARERKRSRGNRKSLRRTLKSGLGDDLVQALGLSKGPGLEV
For B1, the “binding activity of MD36 to glucose transporter in terms of β-galactosidase activity” value in data set [1] is “scarcely bound”; in data set [2], “bound”. The β-galactosidase activity entry with IRAP (55–82) is reported as “about 70 units”. The “growth of yeast on tryptophan, leucine and histidine-free SD medium” value in the data set on profilin I is recorded as “did not grow”.
